The target of data set [1] is T1, rat Pept1 (Rattus norvegicus, UniProt P51574).
T1 sequence (P51574 1-710): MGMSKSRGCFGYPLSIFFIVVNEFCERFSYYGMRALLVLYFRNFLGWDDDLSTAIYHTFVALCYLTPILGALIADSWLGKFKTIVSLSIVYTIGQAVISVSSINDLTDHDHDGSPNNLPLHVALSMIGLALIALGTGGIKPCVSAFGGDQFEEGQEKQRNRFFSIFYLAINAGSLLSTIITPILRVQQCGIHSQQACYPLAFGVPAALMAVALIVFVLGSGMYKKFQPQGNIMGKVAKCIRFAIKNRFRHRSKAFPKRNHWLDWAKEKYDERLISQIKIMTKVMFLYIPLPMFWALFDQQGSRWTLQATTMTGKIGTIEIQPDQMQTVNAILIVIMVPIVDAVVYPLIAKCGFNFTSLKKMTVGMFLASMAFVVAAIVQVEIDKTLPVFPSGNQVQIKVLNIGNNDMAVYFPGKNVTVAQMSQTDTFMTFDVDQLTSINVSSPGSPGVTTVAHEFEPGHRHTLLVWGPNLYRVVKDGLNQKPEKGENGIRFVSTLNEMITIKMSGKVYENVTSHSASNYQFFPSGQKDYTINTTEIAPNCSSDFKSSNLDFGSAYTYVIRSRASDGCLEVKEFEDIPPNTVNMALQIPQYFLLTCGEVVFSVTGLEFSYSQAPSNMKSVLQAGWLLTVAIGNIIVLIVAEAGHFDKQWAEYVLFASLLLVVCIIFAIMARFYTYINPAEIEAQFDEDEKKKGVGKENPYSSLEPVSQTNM
Briefly: Cellular transport assay, HEK-293 cells expressing rat Pept1. The note with it: positive substrate 20 μM, 10 min; rat Pept1.

In data set [2] the target is T2, rat Pept2 (Rattus norvegicus, UniProt Q63424).
T2 sequence (Q63424 1-729): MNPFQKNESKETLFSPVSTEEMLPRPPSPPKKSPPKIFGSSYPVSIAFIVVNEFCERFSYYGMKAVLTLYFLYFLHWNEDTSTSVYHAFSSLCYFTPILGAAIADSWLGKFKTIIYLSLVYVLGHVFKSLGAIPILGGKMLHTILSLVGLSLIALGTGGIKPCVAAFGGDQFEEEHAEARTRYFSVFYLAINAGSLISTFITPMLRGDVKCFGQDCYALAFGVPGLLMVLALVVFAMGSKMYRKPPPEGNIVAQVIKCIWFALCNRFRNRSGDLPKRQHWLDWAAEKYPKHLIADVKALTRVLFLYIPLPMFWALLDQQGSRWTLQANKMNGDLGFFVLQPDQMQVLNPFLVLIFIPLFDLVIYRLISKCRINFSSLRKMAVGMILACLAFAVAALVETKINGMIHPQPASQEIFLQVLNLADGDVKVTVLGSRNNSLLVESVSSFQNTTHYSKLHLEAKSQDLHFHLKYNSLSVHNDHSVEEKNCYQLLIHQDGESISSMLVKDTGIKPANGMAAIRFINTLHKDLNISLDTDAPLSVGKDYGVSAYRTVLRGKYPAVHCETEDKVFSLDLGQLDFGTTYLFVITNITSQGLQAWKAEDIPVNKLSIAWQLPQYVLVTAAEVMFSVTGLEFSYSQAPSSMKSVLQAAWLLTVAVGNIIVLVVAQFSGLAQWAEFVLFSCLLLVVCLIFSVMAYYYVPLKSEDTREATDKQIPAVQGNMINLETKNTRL
Briefly: Cellular transport assay, HEK-293 cells expressing rat Pept2. The note with it: positive substrate 20 μM, 10 min; rat Pept2.

In data set [3] the target is T3, human PEPT1 (Homo sapiens, UniProt P46059).
T3 sequence (P46059 1-708): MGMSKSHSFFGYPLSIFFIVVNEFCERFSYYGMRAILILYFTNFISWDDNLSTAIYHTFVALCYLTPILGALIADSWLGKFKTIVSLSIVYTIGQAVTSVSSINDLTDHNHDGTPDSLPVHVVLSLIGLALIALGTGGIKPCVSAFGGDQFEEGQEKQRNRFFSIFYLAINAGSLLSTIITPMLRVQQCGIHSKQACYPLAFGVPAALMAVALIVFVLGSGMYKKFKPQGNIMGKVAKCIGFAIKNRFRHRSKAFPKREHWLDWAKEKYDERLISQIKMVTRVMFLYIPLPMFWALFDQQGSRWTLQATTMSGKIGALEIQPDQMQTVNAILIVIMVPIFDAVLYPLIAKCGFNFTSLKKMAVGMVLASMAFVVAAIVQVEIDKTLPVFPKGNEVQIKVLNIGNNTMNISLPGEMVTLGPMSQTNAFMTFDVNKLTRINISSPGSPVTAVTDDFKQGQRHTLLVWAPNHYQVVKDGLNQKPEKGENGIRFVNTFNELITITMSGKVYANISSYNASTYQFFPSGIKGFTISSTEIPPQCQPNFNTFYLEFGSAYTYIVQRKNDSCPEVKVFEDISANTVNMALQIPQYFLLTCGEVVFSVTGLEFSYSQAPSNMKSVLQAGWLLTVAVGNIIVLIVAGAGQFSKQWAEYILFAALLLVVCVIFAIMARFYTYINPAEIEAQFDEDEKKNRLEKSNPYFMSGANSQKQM
Description: Cellular transport assay, HEK-293 cells expressing human PEPT1. Particulars: positive substrate 20 μM, 10 min; human transporter printed PEPE1.

Data set [4] concerns the target T4, human PEPT2 (Homo sapiens, UniProt Q16348).
T4 sequence (Q16348 1-729): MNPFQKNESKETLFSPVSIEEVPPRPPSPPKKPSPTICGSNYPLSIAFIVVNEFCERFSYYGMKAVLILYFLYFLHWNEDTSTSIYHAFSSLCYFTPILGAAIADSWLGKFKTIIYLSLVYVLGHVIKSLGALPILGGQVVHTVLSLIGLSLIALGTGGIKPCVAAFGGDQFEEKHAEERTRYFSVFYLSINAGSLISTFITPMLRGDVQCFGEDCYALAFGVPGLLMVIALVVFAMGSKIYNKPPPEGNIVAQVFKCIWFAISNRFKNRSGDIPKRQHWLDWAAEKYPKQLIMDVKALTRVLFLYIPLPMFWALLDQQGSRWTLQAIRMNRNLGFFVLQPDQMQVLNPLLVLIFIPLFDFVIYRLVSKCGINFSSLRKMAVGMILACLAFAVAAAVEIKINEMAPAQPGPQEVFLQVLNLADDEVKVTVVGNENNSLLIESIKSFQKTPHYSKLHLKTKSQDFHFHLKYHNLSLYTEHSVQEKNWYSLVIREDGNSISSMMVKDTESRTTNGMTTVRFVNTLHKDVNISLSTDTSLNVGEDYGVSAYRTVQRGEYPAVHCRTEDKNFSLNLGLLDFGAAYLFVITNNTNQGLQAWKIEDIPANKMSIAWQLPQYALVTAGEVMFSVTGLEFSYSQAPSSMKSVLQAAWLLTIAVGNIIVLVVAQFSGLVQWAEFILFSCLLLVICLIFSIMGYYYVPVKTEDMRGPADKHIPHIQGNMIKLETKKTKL
Description: Cellular transport assay, HEK-293 cells expressing human PEPT2. The note with it: positive substrate 20 μM, 10 min; human PEPT2.

Substrate in data set [5]: O=C(/C=C/c1ccc(O)c(O)c1)O[C@H](Cc1ccc(O)c(O)c1)C(=O)O
Briefly: cells, lysate or membranes named. The note with it: 5 min incubation, concentrations in Table 1, 37.0 °C.

Substrate in data set [6]: O=C(/C=C/c1ccc(O)c(O)c1/C=C/c1ccc(O)c(O)c1)O[C@H](Cc1ccc(O)c(O)c1)C(=O)O
Briefly: cells, lysate or membranes named. The note with it: other: rat hepatic sinusoidal uptake Oatp1b2; 5 min incubation, concentrations in Table 1; 37.0 °C.

Substrate in data set [7]: O=C(/C=C/c1ccc(O)c2c1[C@H](C(=O)O)[C@@H](c1ccc(O)c(O)c1)O2)O[C@H](Cc1ccc(O)c(O)c1)C(=O)O
Description: cells, lysate or membranes named. Particulars: 5 min incubation, concentrations in Table 1, 37.0 °C.

Substrate in data set [8]: O=C(O)Cc1c(/C=C/C(=O)OC(Cc2ccc(O)c(O)c2)C(=O)O)ccc(O)c1O
Briefly: cells, lysate or membranes named. Particulars: 5 min incubation, concentrations in Table 1, 37.0 °C.

Setting [9] is: other: rat hepatic sinusoidal uptake Oatp1b2.
Where [10] appears, read: other: human hepatic sinusoidal uptake OATP1B1.

A word on the Vmax: it is the top rate of the reaction or transport when substrate is in excess.

Where a SMILES comes first, the peptide text is derived from it. [ ]: non-standard residue; d: D form. Sar = CNCC(=O)O

As for `CN(CC(=O)O)C(=O)CN` [GS, glycylsarcosine, reference compound] (H-Gly-[Sar]-OH), the “TransportTC/TransportMC ratio, positive substrate” value in data set [1] is 90.1 ± 10.4 (GS); in data set [2], 101 ± 19 (GS); in data set [3], 126 ± 31 (GS); in data set [4] it was 360 ± 49 (GS).

B1: rat Oatp1b2 (Rattus norvegicus) (protein)
chain: MDHTQQSRKAAEAQPSRSKQTRFCDGFKLFLAALSFSYICKALGGVVMKSSITQIERRFDIPSSISGLIDGGFEIGNLLVIVFVSYFGSKLHRPKLIGIGCFIMGIGSILTALPHFFMGYYKYAKENDIGSLGNSTLTCFINQMTSPTGPSPEIVEKGCEKGLKSHMWIYVLMGNMLRGIGETPIVPLGISYLDDFAKEGHTSMHLGTLHTIAMIGPILGFIMSSVFAKIYVDVGYVDLNSVRITPNDARWVGAWWLSFIVNGLLCITSSIPFFFLPKIPKRSQEERKNSVSLHAPKTDEEKKHMTNLTKQEEQDPSNMTGFLRSLRSILTNEIYVIFLILTLLQVSGFIGSFTYLFKFIEQQFGRTASQANFLLGIITIPTMATAMFLGGYIVKKFKLTSVGIAKFVFFTSSVAYAFQFLYFPLLCENKPFAGLTLTYDGMNPVDSHIDVPLSYCNSDCSCDKNQWEPICGENGVTYISPCLAGCKSFRGDKKPNNTEFYDCSCISNSGNNSAHLGECPRYKCKTNYYFYIILQVTVSFFTAMGSPSLILILMKSVQPELKSLAMGFHSLIIRALGGILAPIYYGAFIDRTCIKWSVTSCGKRGACRLYNSRLFGFSYLGLNLALKTPPLFLYVVLIYFTKRKYKRNDNKTLENGRQFTDEGNPDSVNKNGYYCVPYDEQSNETPL
Regarding B1, the maximum rate (Vmax) in data set [5] (setting [9]) was 0.000159 µmol/min/mg; in data set [6], 1.92e-05 µmol/min/mg; in data set [7] (setting [9]) it was 3.77e-05 µmol/min/mg; in data set [8] (setting [9]), 0.000572 µmol/min/mg. Also, the Vmax/Km in data set [5] (setting [9]) came out at 0.08 µL/min/mg; in data set [6], 0.38 µL/min/mg; in data set [7] (setting [9]), 0.41 µL/min/mg; in data set [8] (setting [9]), 1.23 µL/min/mg.

B2: human OATP1B1 (Homo sapiens) (protein)
chain: MDQNQHLNKTAEAQPSENKKTRYCNGLKMFLAALSLSFIAKTLGAIIMKSSIIHIERRFEISSSLVGFIDGSFEIGNLLVIVFVSYFGSKLHRPKLIGIGCFIMGIGGVLTALPHFFMGYYRYSKETNINSSENSTSTLSTCLINQILSLNRASPEIVGKGCLKESGSYMWIYVFMGNMLRGIGETPIVPLGLSYIDDFAKEGHSSLYLGILNAIAMIGPIIGFTLGSLFSKMYVDIGYVDLSTIRITPTDSRWVGAWWLNFLVSGLFSIISSIPFFFLPQTPNKPQKERKASLSLHVLETNDEKDQTANLTNQGKNITKNVTGFFQSFKSILTNPLYVMFVLLTLLQVSSYIGAFTYVFKYVEQQYGQPSSKANILLGVITIPIFASGMFLGGYIIKKFKLNTVGIAKFSCFTAVMSLSFYLLYFFILCENKSVAGLTMTYDGNNPVTSHRDVPLSYCNSDCNCDESQWEPVCGNNGITYISPCLAGCKSSSGNKKPIVFYNCSCLEVTGLQNRNYSAHLGECPRDDACTRKFYFFVAIQVLNLFFSALGGTSHVMLIVKIVQPELKSLALGFHSMVIRALGGILAPIYFGALIDTTCIKWSTNNCGTRGSCRTYNSTSFSRVYLGLSSMLRVSSLVLYIILIYAMKKKYQEKDINASENGSVMDEANLESLNKNKHFVPSAGADSETHC
As for B2, the Vmax in data set [5] (setting [10]) amounted to 9.81e-05 µmol/min/mg; in data set [7] (setting [10]), 2.7e-05 µmol/min/mg; in data set [8] (setting [10]), 8.93e-05 µmol/min/mg. The Vmax/Km in data set [5] (setting [10]) came to 0.07 µL/min/mg; in data set [7] (setting [10]), 0.06 µL/min/mg; in data set [8] (setting [10]), 0.22 µL/min/mg.

The values are drawn from PMC9127186, “Molecular Basis Underlying Hepatobiliary and Renal Excretion of Phenolic Acids of Salvia miltiorrhiza Roots (Danshen)” (Frontiers in Pharmacology, 2022).
